Measurements taken from the supplement of paper PMC9170038.

Test system: MS2 coat protein
Experiment: apparent KD of MS2 coat protein; designed switch direction (-1 OFF switch, 1 ON switch): -1; higher = weaker reporter binding
Outline: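 An oligonucleotide input, 200 uM small-molecule ligand, or no input was present during titration of SNAP-549-labelled MS2 coat protein, which was doubled from 0.7 or 1.5 nM to 3 µM. Designed RNA switches had been transcribed on Illumina chips by stalled E. coli RNA polymerase. Apparent KD per design is the median over clusters of curves fitted to normalised cluster fluorescence.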

[1] = Eterna round: R95, input ligand: FMN 200 uM
[2] = Eterna round: R95, input ligand: microRNA oligo, concentration not stated
[3] = Eterna round: R95, input ligand: none
[4] = input ligand: microRNA oligo, concentration not stated

Row | Sequence | apparent KD of MS2 coat protein [1] [nM] | apparent KD of MS2 coat protein [2] [nM] | apparent KD of MS2 coat protein [3] [nM] | apparent KD of MS2 coat protein (input ligand: FMN 200 uM) [nM] | apparent KD of MS2 coat protein (input ligand: none) [nM] | apparent KD of MS2 coat protein [4] [nM]
1 | AAAAUGGUCUAGGAUAUGACAAAUCUGAGCACGUCAGAAGGAGACACAUGAGGAUCACCCAUGUGGGUGCGAAA [Erteedza] (puzzle: Exclusion 6) | 324 | 31.8 | 35.2 |  |  | 
2 | CUUUUGUGAGGAUAUCAGUGGUAAUACAAUAGUAUUACUACUGAGAAGGCACAUGAGGAUCACCCAUGUUCCUC [Ex4 344 Omei mod 11] (puzzle: Exclusion 4) |  | 43.1 |  |  |  | 
3 | AAAGAGCGAGGAUAUACGUAUCGGUGCGGCCCGCCGAUGUGACAUGAGGAUCACCCAUGUAGAAGGCGCAGAAA [Excls2-X] (puzzle: Exclusion 2) |  | 21.3 |  |  |  | 
4 | GGUUGACAUGAGGAUCACCCAUGUGAGGAUAUGCGAGAGAAAAAAGUGAGGAAGGAAUGCAGAAGGCGCUGUCG [salish99-ex1_r3_018] (puzzle: Exclusion 1) | 43.3 | 54.3 | 57.7 |  |  | 
5 | GGACCAUAUCAGGAUAUGACUAGCCUCGGCUAGUCAGAAGGGAUGACAUGAGGAUCACCCAUGUGAUCAGGUCC [E6/1-C2] (Eterna round: R97, puzzle: Exclusion 6) |  |  |  | 59.5 | 36.7 | 
6 | CGUAAGCUAGGAUAUGCUUUGGGAAAGCAUUCCUUCGAUAAACUUGAGGAUCACCCAAGUAGAAGGAGCUUACA [salish99_ex2_r4_012] (Eterna round: R97, puzzle: Exclusion 2) |  |  |  | 18.2 | 12.3 | 
7 | GCAAGCGACUAGGCUCGUCUUAUAUUGAAAAGAUUGAAAACAUGAGGAUCACCCAUGUAUGUGGGAGAGUUGAAGUG [JR_SV3TOV2_Sub011] (puzzle: Sensor v3, turn-off variant 2) | 286 | 395 | 310 |  |  | 
8 | ACGUGAUAUCUGUCGGUGGACAUGAGGAUCACCCAUGUAAGCUUUUUGCUCGUCUUACAACCCGGUGACAGACCUUC [Essodiis] (puzzle: Sensor v3, turn-off variant 1) | 138 | 275 | 166 |  |  | 
9 | AAAAUGUCAGGAUAUUGUUAGUUUAGUUGUUUGUAUUAGUUCGAGAAGGGACAUGAGGAUCACCCAUGUGAAAA [Ex4 #68] (Eterna round: R97, puzzle: Exclusion 4) |  |  |  | 42.5 | 35.8 | 
10 | GCUUGUAGAGGAUAUACAAGGGCCUUAGCGAAUAACACCGCACAUGAGGAUCACCCAUGUAGAAGGCUACCACC [Tezausesti] (puzzle: Exclusion 2) |  | 15.2 |  |  |  | 
11 | GUUAUGUUAGGAUAUGCUUAUGGUGGGUGCUCAGACAUGAUGCAGAAGGGACAUGAGGAUCACCCAUGUACUGU [EX4 #19] (Eterna round: R97, puzzle: Exclusion 4) |  |  |  | 777 | 991 | 
12 | UUAUACGUUGAGGAUAUGCGAUUUAGUAUAGUUGUAGAAGGCGAUACAUGAGGAUCACCCAUGUUUAUGGGCAU [LRO-Ex6-08] (puzzle: Exclusion 6) |  | 268 |  |  |  | 
13 | GGAAGAAUGAGUAGUCCUCAUUGAAGAGAACAGUAAGAAACAUGAGGAUCACCCAUGUAAGAACAAGCUUUUGCUCA [JR_Sv3TOV2_Sub002] (puzzle: Sensor v3, turn-off variant 2) | 168 | 699 | 259 |  |  | 
14 | GAAAAGGUAGGAUAUACGAAAAAAAAGGGUAGAAAAAAAACACAUGAGGAUCACCCAUGUAGAAGGACCUAAAG [salish99_ex2_r3_090] (puzzle: Exclusion 2) | 56.1 | 25.7 | 24.6 |  |  | 
15 | AUGUUACUCUGAGGAUAUUGUUUAUUCUUCUCACAUGAGGAUCACCCAUGUUUCCAUGUUAACCGCAAGAAGGCAGUAUUGAUU [JR_ExcNG2_Sub030] (Eterna round: R96, puzzle: Exclusion NG 2) |  |  |  | 76.1 | 55.1 | 49.1
16 | AAGAAACAUGAGGAUCACCCAUGUGAGGAUAUGAAAAAGAAAAUAAAAUAAAUAAUAAUCAGAAGGCACAAAGG [Mat - Mod of Hog D6] (puzzle: Exclusion 1) | 43.1 | 44.4 | 37.3 |  |  | 
17 | AGUACUAACCCGAAAGUGUUAGUACAAUAAGCUUGUGAAACAUGAGGAUCACCCAUGUCCUCAUAAGCUCGUCUUAU [salish99_TOv2_r3_024] (puzzle: Sensor v3, turn-off variant 2) | 16.7 | 766 | 15.3 |  |  | 

Row | Sequence | apparent KD of MS2 coat protein [1] [nM] | apparent KD of MS2 coat protein [2] [nM] | apparent KD of MS2 coat protein [3] [nM] | apparent KD of MS2 coat protein (input ligand: FMN 200 uM) [nM] | apparent KD of MS2 coat protein (input ligand: none) [nM] | apparent KD of MS2 coat protein [4] [nM]
18 | ACUUAUUGAGGAUAUACAGAUUAUUACAUGAGGAUCACCCAUGUUCUUCAAUGUAUAUAUGUAGAAGGCAGAAGAU [Mat - Exclusion 5 - JL Mod - D15] (Eterna round: R97, puzzle: Exclusion 5) |  |  |  | 177 | 57.5 | 
19 | AGCGAAGAGACAGGAUAUGAGAAUAGAUAGAGCUCAGAAGGGUCACAUGAGGAUCACCCAUGUAAAGUCUUGAGGCUGCGUGGU [Prohibition 10 - Jieux - Exclusion NG 1] (Eterna round: R96, puzzle: Exclusion NG 1) |  |  |  | 123 | 61.7 | 41.1
20 | UCUCGCGGGCAAGGAUAUCCUACGUUGUUCUGGCCCGUGCAUGUUACAUGAGGAUCACCCAUGUGGGAGAAGGUGCGCCAGGGC [Design 37] (Eterna round: R96, puzzle: Exclusion NG 2) |  |  |  | 51.3 | 59.8 | 36.7
21 | CACAAGCUUUUUUGAUGCAUUUUAGUUGGUUGCCUUUUUACAUGAGGAUCACCCAUGUUUGUGUAGCUCGAUCUUUU [JR_SV3TOV2_Sub078] (puzzle: Sensor v3, turn-off variant 2) | 36.5 | 29 | 41.2 |  |  | 
22 | ACGUGAUACCUGUCGGUGGACAUGAGGAUCACCCAUGUAAGCUUUUUGCUCGUCUUAUAACCCGGUGACAGACCUUC [Racequbebe] (puzzle: Sensor v3, turn-off variant 1) | 97.7 | 544 | 142 |  |  | 
23 | UUUGUCUGUGUGAGGAUAUACUUUGUUUGGUCGUUGUAGAAGGCACAUGAGGAUCACCCAUGUAUUUUGUUGUG [JR_BME4_Sub015] (puzzle: Brourd's mod of Exclusion 4) |  | 26.9 |  |  |  | 
24 | ACAAGAGCGGAAGGAUAUUGUACAUGAGGAUCACCCAUGUAAUAAAUGAGGAUCACGGAUGUAGUCAAGAAGGUCCGGAUAAGA [Ostracism 1 - Jieux - Exclusion NG 2] (Eterna round: R96, puzzle: Exclusion NG 2) |  |  |  | 47.7 | 50.6 | 60.8
25 | GUGAGAUAGUUAGUGGACGACAUGAGGAUCACCCAUGUGAGGGAAAUGUUAAGGAGAAAGCUUUUUGCUCGUCUUUA [JR_SV3TOV1_Sub035] (puzzle: Sensor v3, turn-off variant 1) | 98.9 | 70.4 | 180 |  |  | 
26 | AAAAGGAUAGGAUAUGCUCUAGGACACUUGAGGAUCACCCAAGUGUCGGCAAGGUCCUAGGCAGAAGGAUCUGGCA [Onordibi] (Eterna round: R97, puzzle: Exclusion 5) |  |  |  | 88.3 | 29.9 | 
27 | CAGCUGAAUGUGAGGAUAUUACGAGCCUCGGCUCGUGAGAAGGCACAUGAGGAUCACCCAUGUCUCAACAGCUG [BmEx4/2-B2] (Eterna round: R97, puzzle: Brourd's mod of Exclusion 4) |  |  |  | 759 | 36.2 | 
28 | AGUAGUAGUAUCCGUUCUUACAUGAGGAUCACCCAUGUUUCUUGACGUGCACGCGAUGCUCGUCAGACUACCAGAUG [salish99_TOv1_r3_055] (puzzle: Sensor v3, turn-off variant 1) | 68.5 | 88.4 | 91.5 |  |  | 
29 | GAGAAAGCAAGCAAGUGAAACAUGAGGAUCACCCAUGUCCUCAUUUGCUCGUCUUAUAAGCUAUGCGAAAGCAUAGC [Mat - Sensor v3 - turn-off var 1 - Eli Mod - D50] (puzzle: Sensor v3, turn-off variant 1) | 12.3 | 101 | 11.3 |  |  | 
30 | CAUUACUGCAAGCUAUGGGACAUGAGGAUCACCCAUGUUCGUCUUAUUGAUCUAGGUACGCUGACGUACCUAGAUCU [JL-sv1-2.21 Brourd mod] (puzzle: Sensor v3, turn-off variant 1) | 16.3 | 21.4 | 15 |  |  | 
31 | GAAAAUUGGGCAGGAUAUCUAAUGAAAGAAACCGGAGAAGGGCCGGUGGCAAUUGCAGACAUGAGGAUCACCCAUGUAGUUGCA [Eternabot solution 42] (Eterna round: R96, puzzle: Exclusion NG 1) |  |  |  | 13.5 | 14.9 | 15.2
32 | UGUGUGAGACAGGAUAUGCCGGAUGAAAUGCAGGUAGAAGGGUCUACAUGAGGAUCACCCAUGUGGCCGGUUGG [Ex6 #75] (Eterna round: R97, puzzle: Exclusion 6) |  |  |  | 18.9 | 15.1 | 
33 | AUAUUAAUAGUAAGGAUAUGCGUAUAUAUAGUUAUGCAGAAGGUACAUGAGGAUCACCCAUGUAUUAAUGUGUA [LRO-BmodExc4-03-Oppy's Opus] (Eterna round: R97, puzzle: Brourd's mod of Exclusion 4) |  |  |  | 14.9 | 14.3 | 
34 | GCCGUGCAAGGAUAUCGCGGAAAGAACAUGAGGAUCACCCAUGUGAUCACCUUCUAAAUGCGAGAAGGUGCUAAAA [Axebied] (puzzle: Exclusion 5) | 75.7 | 56 | 81.4 |  |  | 
